In general, Kd refers to the equilibrium constant for the complex coming apart. By stoichiometry N is commonly meant a count of units in the complex or per binding partner.

One series addresses POLRMT (Homo sapiens, UniProt O00411 42-1230). The series is described as follows: MST; 500 uM ATP (one nt incorporation, paused), 10 mM Mg2+, no TEFM; MST: 25 mM Tris-HCl pH 8.0, 100 mM NaCl, 10 mM MgCl2, 10% glycerol, 1 mM DTT, 500 uM ATP, 0.05% Tween-20, 15 nM template, 22 C; footprinting: 25 mM Tris-HCl pH. To be noted: protein: recombinant; label: 5' Alexa488 on DNA; 8 bp DNA:RNA hybrid; DNA 5' overhang 10 nt; RNA 5' overhang 4 nt (UUUU).

A further series deals with POLRMT;TEFM (Homo sapiens;Homo sapiens, UniProt O00411;Q96QE5 42-1230;36-360, |). Kind of series: MST; POLRMT titrated with 2000 nM TEFM; 500 uM ATP (one nt incorporation, paused), 10 mM Mg2+; MST: 25 mM Tris-HCl pH 8.0, 100 mM NaCl, 10 mM MgCl2, 10% glycerol, 1 mM DTT, 500 uM ATP, 0.05% Tween-20, 15 nM template, 22 C; footprinting: 25 mM Tris-HCl pH. To be noted: protein: recombinant;recombinant; copies: 1;2; label: 5' Alexa488 on DNA; 8 bp DNA:RNA hybrid; DNA 5' overhang 10 nt; RNA 5' overhang 4 nt (UUUU).
Sequence of POLRMT;TEFM (O00411 42-1230, chain 1 of 2, one chain of several): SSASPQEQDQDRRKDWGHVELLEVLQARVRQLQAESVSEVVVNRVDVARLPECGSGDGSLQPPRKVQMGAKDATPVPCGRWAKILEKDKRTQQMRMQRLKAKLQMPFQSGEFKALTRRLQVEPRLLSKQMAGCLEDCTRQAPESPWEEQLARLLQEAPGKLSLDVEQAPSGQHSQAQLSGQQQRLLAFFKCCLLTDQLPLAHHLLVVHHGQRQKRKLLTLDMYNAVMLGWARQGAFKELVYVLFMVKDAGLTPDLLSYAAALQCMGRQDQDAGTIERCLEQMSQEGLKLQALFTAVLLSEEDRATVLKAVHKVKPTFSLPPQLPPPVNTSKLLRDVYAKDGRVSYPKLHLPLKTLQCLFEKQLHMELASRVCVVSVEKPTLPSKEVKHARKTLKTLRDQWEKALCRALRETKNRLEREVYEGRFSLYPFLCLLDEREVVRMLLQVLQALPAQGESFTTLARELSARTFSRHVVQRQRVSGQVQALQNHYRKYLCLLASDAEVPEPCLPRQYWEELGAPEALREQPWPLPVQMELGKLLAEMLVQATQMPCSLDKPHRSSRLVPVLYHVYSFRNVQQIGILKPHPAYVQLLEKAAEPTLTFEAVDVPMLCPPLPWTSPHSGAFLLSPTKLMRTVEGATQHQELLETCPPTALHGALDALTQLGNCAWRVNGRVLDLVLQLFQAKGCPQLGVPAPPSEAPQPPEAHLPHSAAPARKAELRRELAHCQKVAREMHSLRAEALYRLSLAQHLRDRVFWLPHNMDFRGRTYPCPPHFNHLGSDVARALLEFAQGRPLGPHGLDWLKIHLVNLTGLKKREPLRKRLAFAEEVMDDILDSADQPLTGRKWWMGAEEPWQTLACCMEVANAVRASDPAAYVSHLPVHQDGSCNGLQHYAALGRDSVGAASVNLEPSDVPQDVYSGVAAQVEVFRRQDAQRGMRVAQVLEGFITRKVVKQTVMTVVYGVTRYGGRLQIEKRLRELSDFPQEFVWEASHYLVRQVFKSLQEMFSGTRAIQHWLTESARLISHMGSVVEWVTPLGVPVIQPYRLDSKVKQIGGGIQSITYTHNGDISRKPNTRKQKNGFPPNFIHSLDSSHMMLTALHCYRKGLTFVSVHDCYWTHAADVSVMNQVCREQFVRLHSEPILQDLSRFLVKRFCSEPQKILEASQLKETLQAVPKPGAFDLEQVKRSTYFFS

Series [1] concerns the molecule itself. The series is described as follows: SEC; analytic gel filtration of recombinant TEFM; apparent molecular weight 82 kDa against 37.6 kDa for the chain. (In gel filtration, larger molecules generally elute earlier.)

Sequence of POLRMT (O00411 42-1230): as the sequence (O00411 42-1230, chain 1 of 2, one chain of several) above

B1: elongation-like DNA:RNA template (18-mer DNA / 12-mer RNA) (DNA:RNA)
DNA: GGGAATGCATGGCGCGGC
RNA: UUUUGCCGCGCC
Take B1: the dissociation constant Kd is 47.8 ± 2.88 nM with POLRMT and 11.2 ± 1 nM with POLRMT;TEFM.

B2: human TEFM (mitochondrial transcription elongation factor), residues 36-360 (natural protein, UniProt Q96QE5 36-360, looked up)
chain: KSTTPKKITPNVTFCDENAKEPENALDKLFSSEQQASILHVLNTASTKELEAFRLLRGRRSINIVEHRENFGPFQNLESLMNVPLFKYKSTVQVCNSILCPKTGREKRKSPENRFLRKLLKPDIERERLKAVNSIISIVFGTRRIAWAHLDRKLTVLDWQQSDRWSLMRGIYSSSVYLEEISSIISKMPKADFYVLEKTGLSIQNSSLFPILLHFHIMEAMLYALLNKTFAQDGQHQVLSMNRNAVGKHFELMIGDSRTSGKELVKQFLFDSILKADPRVFFPSDKIVHYRQMFLSTELQRVEELYDSLLQAIAFYELAVFDSQP
modifications: amine-labeled with NT-547 dye (only in the MST with POLRMT)
notes: human TEFM, UniProt Q96QE5, residues 36-360; lacks the predicted mitochondrial targeting signal; The gel filtration used unlabelled protein; the MST used NT-547-labelled protein; also called recombinant TEFM; recombinant human TEFM; source: KRX cells (Promega), purified (Ni-IMAC, TEV cleavage, HiTrap Heparin, Sephacryl S-200 gel filtration); not shown: His6, N-terminal, cleaved
As for B2, the “stoichiometry N” value in series [1] was 2.

The record behind these values is article PMC4357710, “TEFM is a potent stimulator of mitochondrial transcription elongation in vitro” (Nucleic Acids Research, 2015).
